Results on one molecule are retold here after patent publication US20170138946A1 (Memorial Sloan Kettering, published 2017).

The test has as its target T1, Enhancer of zeste homolog 2 (EZH2) (human, UniProt Q15910 1-746, limits assumed).
T1 construct: Endogenous protein in SET2 cells
Nature of the test: co-immunoprecipitation of endogenous EZH2 and BAP1 in SET2 cells with Western blot, in presence of benzonase. The source says: FIG. 13A-L. BAP1 depletion leads to an increase in PRC2 component expression, increased H4K20me1 and deubiquitination of L3MBTL2. (a) Co-immunoprecipitation of endogenous EZH2 and BAP1 in SET2 cells followed by Western blot analysis (performed in presence of benzonase to inhibit interactions dependent on DNA). (b) Bap1, Ezh2 and Suz12 expression by qRT-PCR from sorted granulocyte-macrophage progenitor (GMP; Lin⁻ c-Kit⁺Sca1⁻CD34′Fcγ⁺). (c) Western blot analysis of Bap1 and Ezh2 in bone marrow cells from Bap1 KO and control mice. (d) H4K20me1 quantification from histone mass spectrometry experiments. (e) Cell viability as assessed by Cell Titer Glo viability assay and (f) Annexin V assays for SETD8 overexpression experiments in BAP1 wild-type (MSTO-211H, Meso10) and mutant cell lines H226, deletion; H2452 catalytic mutation). (g) Quantitative qPCR for SETD8 and EZH2 in BAP1 mutant cells with SETD8 overexpression. (h) Western blot analysis for SETD8 and EZH2 in a BAP1 wild-type cell line. (i) Cell Titer Glo assay in cells treated with DMSO or 5, 10, 20 μM BVT594. (j) L3MBTL2 and BAP1 expression in BAP1 wild-type (Met5a, JMN) and mutant mesothelioma cell lines (H226, H2452, H28). (k) 293T cells overexpressing Myc-His tagged ubiquitin and L3MBTL2 cDNA and varying levels of BAP1 (0, 5 μg, 2.5 μg, 1 μg). […] Statistics were calculated with Student t-test; *p<0.05, **p<0.005; ±SEM values reported. […]
Background: A western blot detects proteins with antibodies after separation by electrophoresis.

T1 sequence (Q15910 whole entry): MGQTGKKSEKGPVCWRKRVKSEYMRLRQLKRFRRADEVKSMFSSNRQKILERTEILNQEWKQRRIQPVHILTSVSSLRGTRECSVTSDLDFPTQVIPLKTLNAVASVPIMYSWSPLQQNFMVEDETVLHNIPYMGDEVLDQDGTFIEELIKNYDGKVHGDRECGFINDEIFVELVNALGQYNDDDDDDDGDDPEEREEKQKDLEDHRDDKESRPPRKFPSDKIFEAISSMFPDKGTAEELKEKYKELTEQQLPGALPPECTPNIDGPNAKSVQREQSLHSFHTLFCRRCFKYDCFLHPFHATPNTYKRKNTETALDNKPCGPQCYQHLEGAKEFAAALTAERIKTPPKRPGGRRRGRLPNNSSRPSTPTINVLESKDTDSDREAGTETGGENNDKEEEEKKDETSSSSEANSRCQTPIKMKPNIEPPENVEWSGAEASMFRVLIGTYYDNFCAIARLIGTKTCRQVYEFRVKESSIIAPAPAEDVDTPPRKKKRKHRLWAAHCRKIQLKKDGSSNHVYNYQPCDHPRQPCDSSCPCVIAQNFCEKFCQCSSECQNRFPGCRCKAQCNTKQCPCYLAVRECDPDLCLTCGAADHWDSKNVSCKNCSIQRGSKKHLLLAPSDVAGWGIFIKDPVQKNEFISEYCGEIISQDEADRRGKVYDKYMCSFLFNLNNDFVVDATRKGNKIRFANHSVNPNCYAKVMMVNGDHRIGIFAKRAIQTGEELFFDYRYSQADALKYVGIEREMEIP

B1: BRCA1 associated protein-1 (BAP1) (enzyme, human, UniProt Q92560 1-729, looked up)
chain: MNKGWLELESDPGLFTLLVEDFGVKGVQVEEIYDLQSKCQGPVYGFIFLFKWIEERRSRRKVSTLVDDTSVIDDDIVNNMFFAHQLIPNSCATHALLSVLLNCSSVDLGPTLSRMKDFTKGFSPESKGYAIGNAPELAKAHNSHARPEPRHLPEKQNGLSAVRTMEAFHFVSYVPITGRLFELDGLKVYPIDHGPWGEDEEWTDKARRVIMERIGLATAGEPYHDIRFNLMAVVPDRRIKYEARLHVLKVNRQTVLEALQQLIRVTQPELIQTHKSQESQLPEESKSASNKSPLVLEANRAPAASEGNHTDGAEEAAGSCAQAPSHSPPNKPKLVVKPPGSSLNGVHPNPTPIVQRLPAFLDNHNYAKSPMQEEEDLAAGVGRSRVPVRPPQQYSDDEDDYEDDEEDDVQNTNSALRYKGKGTGKPGALSGSADGQLSVLQPNTINVLAEKLKESQKDLSIPLSIKTSSGAGSPAVAVPTHSQPSPTPSNESTDTASEIGSAFNSPLRSPIRSANPTRPSSPVTSHISKVLFGEDDSLLRVDCIRYNRAVRDLGPVISTGLLHLAEDGVLSPLALTEGGKGSSPSIRPIQGSQGSSSPVEKEVVEATDSREKTGMVRPGEPLSGEKYSPKELLALLKCVEAEIANYEACLKEEVEKRKKFKIDDQRRTHNYDEFICTFISMLAQEGMLANLVEQNISVRRRQGVSIGRLHKQRKPDRRKRSRPYKAKRQ
notes: Immunoprecipitated from cell lysates; It is endogenous in the human leukemia line SET2
As for B1, the binding result is recorded as “no binding”.
